Reference: patent US20250346685A1 (published 2025)

How the values were obtained:
[1] = molecular target: T1, human CD3 on T cells (Jurkat cells; human peripheral blood CD4+ and CD8+ T-cells) (human, UniProt P07766 23-207); experiment: flow cytometry on human peripheral blood CD4+ T-cells
T1 construct: whole, on cells; also called CD4T; CD4 + T
Description: (§1) Fresh human peripheral blood was taken and PBMC was isolated by Ficoll. Paque Plu (GE, 17-1440-03). PBMC was adjusted to 5×10⁵ cells/mL with 4% calf serum (Hyclone, SH30626.06), 100 μL/well was added to a 96-well U-plate, the supernatant was centrifuged off and 100 μL of gradient diluted antibody (with starting concentration of 1800 nM, 3-fold dilution, 10 gradients) was added to each well and incubated for 60 min at 4° C. 50 μL/well of Alexa Fluro647 labeled goat anti-human IgG Fc (1:300 dilution) was added to the secondary antibody, with ice bath for 20 min, and 50 μL/well PI added after washing once, incubated for 5 min, and flow cytometer (BD C6) was used for detection. The control antibody REGN5458 was synthesized and prepared according to US20200024356.

[2] = molecular target: T1, human CD3 on T cells (Jurkat cells; …); experiment: flow cytometry on human peripheral blood CD8+ T-cells
Description: as §1

[3] = molecular target: T2, human CD3εγ-Fc heterodimer (human); experiment: SPR (Biacore T200), antigen amine-coupled on CM5 chip, antibody as analyte, 1:1 model
T2 construct: also called human CD3εγ recombinant protein; human CD3εγ protein
T2 chain 1: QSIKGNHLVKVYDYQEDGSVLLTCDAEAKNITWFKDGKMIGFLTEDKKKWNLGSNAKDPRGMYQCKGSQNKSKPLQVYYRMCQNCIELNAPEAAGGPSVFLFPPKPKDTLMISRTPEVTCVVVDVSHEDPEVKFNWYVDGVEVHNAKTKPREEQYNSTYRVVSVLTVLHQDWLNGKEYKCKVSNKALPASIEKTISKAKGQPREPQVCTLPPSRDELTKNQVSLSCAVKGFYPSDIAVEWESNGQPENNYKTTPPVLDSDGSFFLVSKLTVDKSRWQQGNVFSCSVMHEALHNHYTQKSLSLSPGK
T2 chain 2: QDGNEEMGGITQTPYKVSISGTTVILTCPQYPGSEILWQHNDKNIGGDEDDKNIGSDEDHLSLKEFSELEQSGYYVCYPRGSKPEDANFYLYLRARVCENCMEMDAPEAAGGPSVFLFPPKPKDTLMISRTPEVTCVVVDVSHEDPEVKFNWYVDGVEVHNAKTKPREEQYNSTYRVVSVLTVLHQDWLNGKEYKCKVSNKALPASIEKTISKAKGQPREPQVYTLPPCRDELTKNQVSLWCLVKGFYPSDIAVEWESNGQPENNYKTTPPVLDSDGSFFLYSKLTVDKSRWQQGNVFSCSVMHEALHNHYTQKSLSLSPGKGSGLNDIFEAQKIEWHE
Description: 10 μg/mL human or cynomolgus monkey BCMA or CD3εγ recombinant antigen was bound to a CM5 chip (GE healthcare) by amino conjugating, while the amount of antigen bound was controlled to approximately 200 RU. After baseline plateau, gradient diluted antibodies (7 gradients of 2-fold dilutions from 10 μg/mL) were flowed through the chip at a flow rate of 30 μL/min for a binding time of 350 seconds and a dissociation time of 600 seconds. Kinetic constants were fitted using Biacore T200 evaluation software with a 1:1 binding model.

B1: BCMA × CD3 κλ004 (bispecific antibody, human IgG4 S228P, kappa, lambda)
light 1: DIVLTQSPASLAVSPGQRATITCRASKSVTTSGYSYIHWYQKKPGQPPKLLIYLASDLEAGVPARFSGSGSGTDFTLTINPVEAEDTANYYCQHSRELPWTFGQGTKVEIKRTVAAPSVFIFPPSDEQLKSGTASVVCLLNNFYPREAKVQWKVDNALQSGNSQESVTEQDSKDSTYSLSSTLTLSKADYEKHKVYACEVTHQGLSSPVTKSFNRGEC
heavy 1: QVQLVQSGSELKKPGASVKVSCKASGYIFTNFGMNWVREAPGQGLEWMGWINTYTGEQIYADGFTGRFVFSLDTSASTAYLQISSLKAEDTAVYFCARGEIYYGYDVGFVYWGQGTLVTVSSASTKGPSVFPLAPCSRSTSESTAALGCLVKDYFPEPVTVSWNSGALTSGVHTFPAVLQSSGLYSLSSVVTVPSSSLGTKTYTCNVDHKPSNTKVDKRVESKYGPPCPPCPAPEFEGGPSVFLFPPKPKDTLMISRTPEVTCVVVDVSQEDPEVQFNWYVDGVEVHNAKTKPREEQFNSTYRVVSVLTVLHQDWLNGKEYKCKVSNKGLASSIEKTISKAKGQPREPQVCTLPPSQEEMTKNQVSLSCAVKGFYPSDIAVEWESNGQPENNYKTTPPVLDSDGSFFLVSKLTVDKSRWQEGNVFSCSVMHEALHNHYTQKSLSLSLGK
light 2: QAVVTQEPSLTVSPGGTVTLTCRSSTGAVTTSNYANWVQEKPGQAPRGLIGGTNKRAPWTPARFSGSLLGGKAALTITGAQAEDEAEYYCVLWYSNLWVFGGGTKLTVLGQPKAAPSVTLFPPSSEELQANKATLVCLISDFYPGAVTVAWKADSSPVKAGVETTTPSKQSNNKYAASSYLSLTPEQWKSHRSYSCQVTHEGSTVEKTVAPTECS
heavy 2: EVQLVESGGGLVQPGGSLRLSCAASGFTFNTYAMNWVRKAPGKGLEWVGRIRSKYNNYATYYADSVKDRFTISRDDSKNSLYLQMNSLKTEDTAVYYCVRHGNFGNSYVSWFAYWGQGTLVTVSSASTKGPSVFPLAPCSRSTSESTAALGCLVKDYFPEPVTVSWNSGALTSGVHTFPAVLQSSGLYSLSSVVTVPSSSLGTKTYTCNVDHKPSNTKVDKRVESKYGPPCPPCPAPEFEGGPSVFLFPPKPKDTLMISRTPEVTCVVVDVSQEDPEVQFNWYVDGVEVHNAKTKPREEQFNSTYRVVSVLTVLHQDWLNGKEYKCKVSNKGLASSIEKTISKAKGQPREPQVYTLPPCQEEMTKNQVSLWCLVKGFYPSDIAVEWESNGQPENNYKTTPPVLDSDGSFFLYSKLTVDKSRWQEGNVFSCSVMHEALHNHYTQKSLSLSLGK
notes: also called BCMA×CD3 κλ bispecific antibody
With B1 the EC50 [1] was 79 nM, the EC50 [2] was 67 nM and the Kd [3] was 32 nM.
